Biological target: Human IL-21 receptor on Baf3/KZ134/huIL-21R cells (human) (UniProt Q9HBE5)
Assay: cell-based or functional assay

Human IL-21 receptor on Baf3/KZ134/huIL-21R cells (human), sequence (Q9HBE5 20-538): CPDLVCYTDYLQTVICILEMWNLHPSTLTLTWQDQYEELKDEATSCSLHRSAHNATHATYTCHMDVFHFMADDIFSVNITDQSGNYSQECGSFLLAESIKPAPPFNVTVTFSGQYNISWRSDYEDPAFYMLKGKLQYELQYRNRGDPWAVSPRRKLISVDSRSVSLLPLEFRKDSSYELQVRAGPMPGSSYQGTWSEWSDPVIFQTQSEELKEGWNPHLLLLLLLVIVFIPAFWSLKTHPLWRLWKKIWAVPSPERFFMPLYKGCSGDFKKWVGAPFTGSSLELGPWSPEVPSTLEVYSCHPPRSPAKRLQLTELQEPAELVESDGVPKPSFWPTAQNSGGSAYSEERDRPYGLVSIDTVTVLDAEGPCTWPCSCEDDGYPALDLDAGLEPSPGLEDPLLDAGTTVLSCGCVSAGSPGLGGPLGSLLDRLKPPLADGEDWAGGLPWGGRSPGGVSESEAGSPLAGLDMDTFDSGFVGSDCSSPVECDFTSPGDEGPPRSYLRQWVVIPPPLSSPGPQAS

Substance: Recombinant rat IL-21 (from UniProt A3QPB9 18-146) (ligand)
- EC90, 24 hr STAT-Luciferase assay in Baf3/KZ134/huIL-21R cells: 1.08 nM

Reference: US20100041873A1
